# Molecular target: PRO-C17 monoclonal antibody
# Test: competitive ELISA; standard peptide competes with plate-bound biotinylated … for the HRP-labelled mAb
binder,measurement,value
QGMAPAAGADLDKIGLHSDSQEELWMFVRK [30 amino acid standard peptide (…)],IC50,2.1 ng/mL
same,Mean IC25,0.8 ng/mL
same,Mean IC75,5.5 ng/mL

# Reference: patent US20260266825A1
